# Source: paper PMC9723642
# Assays:
# Assay in all cases: EMSA
# Conditions in all cases: EMSA: 10 mM Tris-HCl pH 7.5, 1 mM EDTA, 100 mM KCl, 0.1 mM DTT, 5% glycerol, 0.01 mg/mL BSA, 20 nM RNA, room temperature, 1 h; pull-down: RNA folded in 100 mM …
# [1] = system: NCL* (PRMT1-methylated recombinant NCL) (Homo sapiens)
# [2] = system: RGG peptide (Homo sapiens)
# [3] = system: RGG* methylated peptide (Homo sapiens)
# [4] = system: recombinant NCL (Homo sapiens)
substance,measurement,setting,value
EBNA1,Kd,[1],202 nM
same,Kd,[2],0.154 nM
same,Kd,[3],0.107 nM
same,Kd,[4],306 nM
